Experimental findings from patent US20230071609A1 (Genentech, published 2023) are described below.

For this assay, the target named is T1, APOL6-myc-FLAG (human, UniProt Q9BWW8 1-343).
T1 construct: whole, on cells; In fixed, permeabilized transfected COS cells; untagged APOL6 in the western blots; not shown: C-terminal myc-FLAG tag
T1 sequence (looked up): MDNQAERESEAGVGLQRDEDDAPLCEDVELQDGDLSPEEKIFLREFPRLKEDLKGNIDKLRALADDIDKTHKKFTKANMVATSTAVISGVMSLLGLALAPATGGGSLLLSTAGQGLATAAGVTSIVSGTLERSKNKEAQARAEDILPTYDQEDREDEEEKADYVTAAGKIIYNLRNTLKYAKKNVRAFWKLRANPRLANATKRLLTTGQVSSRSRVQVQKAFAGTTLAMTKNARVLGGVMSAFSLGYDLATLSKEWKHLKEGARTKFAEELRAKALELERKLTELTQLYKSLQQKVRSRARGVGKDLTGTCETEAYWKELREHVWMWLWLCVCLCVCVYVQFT
Description: immunofluorescence on transfected COS cells; grade (also no cross-reaction by western blot). The source says: COS cells were transfected as in FIG. 31A except APOL1 and APOL2 were also C-terminally myc-FLAG tagged. Overlays of APOL with epitope tags: either mouse anti-FLAG-M2 or mouse anti-myc 9E10 for anti-APOL1 rabmabs; or rabbit anti-Myc 71D10 in conjunction with mouse anti-APOL1. Signals indicate the two antibodies overlap (i.e. anti-APOL1 cross-reacts with that APOL); signals (epitope tag only) indicate no cross-reactivity. Alexa647 anti-rabbit or mouse were used for the tags to rule out the possibility that any colocalization was a bleed-through artifact. Sparsely transfected areas were imaged to permit evaluation of background staining in adjacent untransfected cells—DAPI nuclear staining identifies both untransfected and transfected cell nuclei. […] Note that none of the antibodies cross-reacted with the more distantly related APOL6. *, APOL2-myc-FLAG is presumably misfolded, since it is not as cross-reactive as untagged APOL2 (compare FIG. 31A) with several antibodies. Commercial antibodies are Sigma HPA018885, Epitomics EPR2907 (2) (Epito) and Proteintech 11486-2-AP (Ptech).
Cells were plated on LabTekII (Nalge Nunc 154534) slides and fixed at 70-100% confluency. For mAb screening, cells were fixed/permeabilized for 5 min in −20° C. methanol (EMD MX0485-6). […]

B1: antibody 4.12E5 (antibody, V domains shown)
VH: EVQLQQSGPELVKTGASVKISCKASGYSFTGYFMHWVKQSHGKSLEWIGYISCYNGASVYNQRFKGKATFTIDTSSSTAYMQFNSLTSEDSAVYYCARDVLRYPRYAVDYWGQGTSVTVSS
VL: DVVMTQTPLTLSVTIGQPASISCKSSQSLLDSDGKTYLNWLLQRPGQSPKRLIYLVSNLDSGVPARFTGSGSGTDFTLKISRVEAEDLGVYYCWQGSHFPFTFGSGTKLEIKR
notes: Mouse mAb, cloned as murine IgG2a LALAPG
Regarding B1, the binding result is “no binding (tested: 1 µg/ml)”.
